Assay results: publication PMC11100904, “How short peptides can disassemble ultra-stable tau fibrils extracted from Alzheimer’s disease brain by a strain-relief mechanism” (Research Square, 2024)

Target: T1, 15N,13C-labeled tau K18+ (residues Gln244-Glu380 of 4R tau) (UniProt P10636-8 244-380)
T1 construct: Uniformly 15N,13C isotope-labelled for NMR; purified as the unlabeled protein; also called tau K18+ monomer; tau monomers; source: E. coli BL21-Gold, M9 medium with 15NH4Cl and 13C-glucose, purified (boiling, HiTrap SP HP ion exchange, Superdex 75)
Experiment: NMR titration; 1H-15N HSQC, 0.1 mM 15N,13C-labeled tau K18+ in 100 mM KCl, 20 mM NaH2PO4, 1 mM TCEP, 5%/95% D2O/H2O, pH 7.0, without or with 1 mM peptide (10-fold molar excess), 25 °C; chemical shift perturbation; one concentration, changes seen over time (2.5 months at 4 °C for D-TLKIVWI)
Conditions: both partners purified

T1 sequence (P10636 561-697): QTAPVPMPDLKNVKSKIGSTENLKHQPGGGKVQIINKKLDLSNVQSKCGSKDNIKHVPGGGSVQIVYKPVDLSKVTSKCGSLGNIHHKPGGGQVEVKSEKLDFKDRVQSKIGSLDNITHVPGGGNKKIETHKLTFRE

B1: L-TLKIVWI (peptide)
peptide: TLKIVWI
notes: L-enantiomer of the designed peptide D-TLKIVWI; All L-amino acids; also called L-TLKIVWX (X = I); source: synthetic peptide (GenScript, purified to ≥98%)
- binding result: binds
